According to paper doi:10.1101/699967 (bioRxiv, 2019):

Target: HaloTag-Brd4-BD1_BD2-NanoLuc (aa 44-460) (human, UniProt O60885 44-460, HaloTag NanoBRET 618 fluorescent ligand on the HaloTag (experimental samples))
Test: FRET or BRET

EC50: 7.5 ± 3.5 µM
Binder: SGRGKGGKGLGKGGAKRHR (acetyl-lysine at 5, 8 and 16) [H4(1-19)K5/8/16-triacetyl histone peptide]
